Test results reported in article PMC5431157.

Columns and labels:
human thrombin (human) [1] = molecular target: human thrombin (human) (UniProt P00734); test: enzyme inhibition kinetics (chromogenic substrate S-2238); 0.1 nM thrombin added to sculptin (0-80 pM) and S-2238 at different concentrations; 50 mM phosphate, 150 mM NaCl, 0.1% PEG 6000, pH 7.4, 37 °C; Hanes-Woolf plot, intercepts against inhibitor concentration, confirmed by non-linear regression for competitive inhibition
human thrombin (human) [2] = molecular target: human thrombin (human) (UniProt P00734); test: enzyme inhibition kinetics (chromogenic substrate S-2238); 0.1 nM thrombin, 15 µM S-2238, sculptin 0-500 pM; 50 mM phosphate, 150 mM NaCl, 0.1% PEG 6000, pH 7.4, 37 °C; fractional steady-state velocities fitted to Morrison's tight binding equation
human thrombin (human) [3] = molecular target: human thrombin (human) (UniProt P00734)
human thrombin (human) [4] = molecular target: human thrombin (human) (UniProt P00734); remark: listed apart in the source
human thrombin (human) [5] = molecular target: human thrombin (human) (UniProt P00734); test: enzyme inhibition kinetics (chromogenic substrate S-2238); 100 pM thrombin, 15 µM S-2238, sculptin 0-50 pM; 50 mM phosphate, 150 mM NaCl, 0.1% PEG 6000, pH 7.4, 37 °C; progress curves, kobs against sculptin concentration gives kon and koff; Ki = koff/kon

Substance: recombinant sculptin (natural protein)
- Ki (human thrombin (human) [1]): 0.0183 nM
- Ki (human thrombin (human) [2]): 0.0195 nM
- residual activity of thrombin (100 pM, chromogenic substrate) with 1 nM sculptin, 6 h at 37 °C (human thrombin (human) [3]): 97%
- IC50 of inhibition of thrombin (0.1 nM) hydrolysis of 15 µM S-2238, dose-response fit (human thrombin (human) [4]): 0.0866 nM
- Ki (human thrombin (human) [5]): 0.0161 nM
- koff (human thrombin (human) [5]): 0.00065 s⁻¹
- kon (human thrombin (human) [5]): 4.04e+07 M⁻¹ s⁻¹
